{"source": "patent US5935840A", "about": "“Activated recombinant adenovirus proteinases” (priority 1995, dated 1999)", "key": {"HEP1DBP": {"test_system": "HEP1DBP", "test": "Cleavage of artificial protein substrate HEP1DBP (SDS-polyacrylamide gel electrophoresis)", "type": "biochemical", "details": "incubated with HEP1DBP alone, no added cofactors", "text": "Recombinant protein substrates that resemble natural virion precursors, such as pVI, can be produced in E. coli by genetic engineering methods similar to those used for expression of recombinant adenovirus proteinase. The recombinant substrate may have an artificial leader sequence that can be removed by proteinase-mediated cleavage. The leader can be designed to aid in purification of the substrate; thus the recombinant substrate can be produced and purified much more efficiently than natural adenovirus substrates. Recombinant protein substrates also serve as prototypes of potential commercial products, showing that the adenovirus proteinase will remove an artificial leader sequence from a recombinant protein that is not related to any adenovirus protein. The first artificial protein substrate was called HEP1DBP. It consists of a 17 amino acid leader (Met-Ala-Ser-Met-Thr-Gly-His-His-His-His-His-His-Gly-Met-Ser-Gly-Gly-) (SEQ ID NO: 37) attached to the initiating methionine of the 232 amino acid DNA binding protein (DBP), of bacteriophage T7. The T7 DBP is the product of gene 2.5. The recombinant proteinase substrate is produced by induction of a pET expression plasmid called pT7HEP1DBP (also called pT7HIS2) (FIG. 7A and Example 11); the predicted sequence of the expressed substrate is given in Table 1. The leader sequence contains six consecutive histidine residues to permit purification by metal affinity chromatography in a manner analogous to purification of the adenovirus proteinase. Immediately preceding the methionine corresponding to the initiation site of the T7 DBP is the tetra-amino acid element -Met-Ser-Gly-Gly- (SEQ ID NO: 38). This segment corresponds to the proteinase recognition sequence in the adenovirus virion precursor polypeptide pVI. The size of the leader sequence was chosen so that the substrate precursor HEP1DBP, and the predicted major product after cleavage, the T7 DBP, could easily be distinguished by SDS-polyacrylamide gel electrophoresis.\nWhen purified HEP1DBP was incubated with disrupted wild-type adenovirus 2 virions, it was cleaved, as determined from the change in its mobility during SDS-polyacrylamide gel electrophoresis. No cleavage was observed when incubation was with disrupted H2ts1 virions alone.\nPlasmid pT7HEP1DBP (5346 bp) is a pET-3 derivative that expresses the […] T7 gene 2.5 protein (a single-stranded DNA binding protein) attached to a 17-amino acid leader sequence (FIG. 19). The 249-amino acid HEP1DBP polypeptide serves as an artificial substrate for the adenovirus EP; the leader peptide, MASMTGHHHHHHGMSGG- (SEQ ID NO: 37), ends with the Ad2 proteinase recognition sequence -MSGG- (SEQ ID NO: 38) [Anderson, C. […]"}, "[1]": {"test": "Solubility of bacterially expressed proteinases (10,000×g supernatant/pellet of lysed E. coli)", "type": "physicochemical", "protocol": "The 23k5 and 23k6 products were tested for solubility as an indication of protein folding. Induced bacteria were harvested and lysed with lysozyme-EDTA, and 10,000×g supernatants were prepared.\nThe expressed proteinase polypeptides were then tested for solubility. Induced bacteria were harvested and lysed with lysozyme-EDTA, and 10,000×g supernatants were prepared. In each case, the majority of the proteinase polypeptide was found in the 10,000×g pellet. When pellet fractions were analyzed by SDS-polyacrylamide gel electrophoresis in the absence of a reducing agent, only a small fraction of the proteinase polypeptides entered the stacking gel, showing that most of the bacterially synthesized proteinase was misfolded and crosslinked through disulfide bonds. This finding was true for both pT7AD23K5 products (23k5a and 23k5b) as well as for the 23k6 polypeptide."}, "[2]": {"test_system": "Ad2 major core protein precursor, pVII", "test": "Assay of adenovirus proteinase activity in crude extracts: cleavage of [35S]-methionine-labeled pVII (SDS-PAGE, autoradiography)", "type": "biochemical, adenovirus type 2", "protocol": "The expression products of the above-described Ad2 and Ad12 proteinase plasmids were tested for their ability to cleave the Ad2 major core protein precursor, pVII, in crude extracts from adenovirus-infected cells. The extracts were obtained from human cells infected with the temperature-sensitive mutant Ad2 strain, H2ts1, which has a defective proteinase. As described below, adenovirus proteinase activity requires the presence of two cofactors. […] The recombinant proteinases were also characterized by peptide sequence analysis of their amino-termini.\nBacterial extracts were incubated with the radiolabeled substrate (pVII). Samples were removed at different times and analyzed by SDS-PAGE and autoradiography. […] Appearance of the processed VII band and concurrent decrease of the precursor pVII band indicates proteinase activity. Radiolabeled proteins of Ad2 virions were run on the gel to indicate the positions of pVII, VII, and other virion components (lane a). Extracts from Ad2 -infected HeLa cells were assayed as a positive control for proteinase activity (lane b).\nAdenovirus proteinase activity was monitored by the cleavage of [^35 S]-methionine-labeled major core precursor (pVII) essentially as described (Bhatti and Weber, Biochem. Biophys. Res. Comm. 81: 973-797, (1978)). The proteinase substrate was prepared from Ad2Ad2tsl-infected HeLa cells grown at 39° C. and labeled with [^35 S]-methionine (200 μCi/plate) from approximately 28 to 30 hours after infection. Labeled cultures were harvested, washed twice in Phosphate Buffered Saline (PBS), resuspended in 1.0 ml of 10 mM sodium phosphate buffer, pH 7.4, per plate, and sonicated for 40 seconds using a water-cooled sonicator horn (Branson Sonic Power Co., Danbury, Conn.). The extract was then centrifuged at 12,000×g for 10 minutes, and the pellet was resuspended in 10 mM phosphate buffer.\nExtracts of Ad-infected cells, harvested 40 hours after infection at 37° C. were used as a source of viral proteinase. Harvested cultures were washed twice with PBS, resuspended in 10 mM phosphate buffer, frozen and thawed once, and centrifuged at 12,000×g for 10 minutes. Pellets were resuspended in 1.0 ml phosphate buffer, pH 7.4, per 10^6 infected cells and sonicated 4×10 seconds; samples were stored at -70° C. Bacterial extracts were prepared by lysozyme-EDTAtreatment of cultures harvested 2 hours after IPTG induction.\nAssays were performed by mixing equal volumes of [^35 S]-labeled substrate and test extract and incubating at 37° C. At different times, 25 μl samples were removed, mixed with 25 μl of SDS Sample Buffer, heated to 90° C., and analyzed by SDS-polyacrylamide gel electrophoresis and autoradiography as described (Anderson et al., J. Virol. 12: 241-252 (1973).\nRecombinant proteinase polypeptides were assayed for proteinase activity by incubating whole-cell extracts of BL21 (DE3), pT7AD23K5/BL21(DE3), and pT7AD23k6/BL21(DE3), prepared as described above, with extracts of [^35 S]-methionine-labeled Ad2 virion precursor polypeptides. Incubation of the labeled extract at 37° C. for up to 20 hours, alone or with an extract prepared from uninfected HeLa cells, produced little change in the pattern of labeled polypeptides."}, "[3]": {"test_system": "(Leu-Arg-Gly-Gly-NH)2 -rhodamine", "test": "Fluorescence assay of proteinase activity of virus and recombinant proteinase preparations", "type": "biochemical", "text": "The nature of the proteinase cofactor(s) was pursued with the aid of the second assay, which utilizes the substrate (Leu-Arg-Gly-Gly-NH)2 -rhodamine. The design of this substrate was based on two facts. (1) It was known that the proteinase present in disrupted Ad2 virions would cleave small peptides with sequence similar to that found at natural cleavage sites in adenovirus virion precursors (Webster et al., 1989). (2) Cleavage of either tetra-peptide sequence from the substituted rhodamine substrate produces a very large increase, up to a 3500-fold, in fluorescence. Under conditions where only a small fraction of the rhodamine substrate is cleaved, the increase in fluorescence is proportional to the amount of proteinase present and to the time of incubation. Thus, the fluorescence assay provides a quantitative method for assessing proteinase activity that is more sensitive convenient and rapid than the gel electrophoresis assay.\nAssays were performed in 400 μl of Assay Buffer (50 mM Tris-HCl, pH 7.4, 25 mM NaCl, 10 mM octylglucoside, and 1 mM dithiothreitol). […] When present, the number of disrupted virus particles was 10^10 and the amount of recombinant proteinase was 0.12 mAU280 nm. […] After 30 minutes at 37° C., a 360 μl aliquot of the reaction was added to 340 μl of Assay Buffer minus octylglucoside, and the increase in fluorescence was measured. The excitation wavelength was 492 nm and the emission wavelength was 523 nm, both with a bandwidth of 5 nm. The change in fluorescence, ΔF, is the magnitude of the fluorescence from the sample minus the magnitude of the fluorescence from an identical solution without enzyme.\nDisrupted virus was obtained as follows: Twice CsCl-banded virus was dialyzed against 10 mM Tris-HCl, pH 8.0, 1mM EDTA and centrifuged at 100,000×g for 1 hour. The pellet was suspended in 10 mM Tris-HCl, pH 6.8, containing 20% (v/v) glycerol and, after three 10 second bursts of sonication, was stored at -20° C. The fluorogenic substrate was synthesized and purified at BNL by Dr. Walter Mangel, using methods similar to those previously described by Dr. Mangel. These methods are described in two U.S. Patents (U.S. Pat. No. 4,557,862 entitled \"Rhodamine derivatives as fluorogenic substrates for proteinases\" by Mangel, W. F., Leytus, S., and L. Helhado; issued Dec. 10, 1985; U.S. patent application Ser. No. 780,552; \"Novel rhodamine derivatives as fluorogenic substrates\" by Mangel, W. F., Leytus, S., and L. Helhado; filing date Sep. 24, 1985) and in other publications by Mangel and co-workers."}}, "note": "“Also recorded” adds a separate entry of the source."}
{"substance": "23K6: recombinant wild-type 204/203 amino acid Ad2 proteinase expressed from pT7AD23k6 in E. coli", "values": [{"measurement": "Cleavage of HEP1DBP", "setting": "HEP1DBP", "value": "no cleavage"}, {"measurement": "Part of recombinant proteinase that folds into a soluble protein", "setting": "[1]; incubation temperature lowered to 30° at addition of IPTG", "value": "approximately half"}, {"measurement": "Solubility of expressed proteinase", "setting": "[1]; induced bacteria lysed with lysozyme-EDTA, 10,000×g", "value": "majority of the proteinase was found in the insoluble pellet"}, {"measurement": "Stability of processing activity in the bacterial extracts", "setting": "[2]; 37° C.", "value": "about 2 hours"}, {"measurement": "Activity/Conditions", "setting": "[2]; Induced, log phase", "value": "Active"}, {"measurement": "Time by which virtually all of pVII had been converted to VII", "setting": "[2]; bacterial extract, 37° C.", "value": "≤ 2", "unit": "hours"}, {"measurement": "Proteinase activity (cleavage of pVII)", "setting": "[2]; extracts of IPTG-induced, log phase cells", "value": "significant proteinase activity; also recorded: active"}]}
{"substance": "rEP protein: purified recombinant Ad2 proteinase, an activatable proteinase", "values": [{"measurement": "Rate of substrate hydrolysis by the rEP protein alone", "setting": "[3]; 8.3 nM rEP protein, 1 μM substrate, no cofactors", "value": "less than 0.014 pmol substrate min^-1"}, {"measurement": "Proteinase activity in fluorescence assay", "setting": "[3]; complemented with disrupted H2ts1 virus", "value": "Activity was obtained"}, {"measurement": "Proteinase activity in fluorescence assay", "setting": "[3]; preparation alone", "value": "no activity"}]}
